{"source": "patent US20170283495A1", "about": "(published 2017)", "binders": {"B1": {"name": "murine anti-hepcidin MAb 583 (antibody, V domains shown)", "VH": "QIQLVQSGPELKKPGETVKISCKASGYTFTNYGMNWVKQAPGKGLKWMGWINTYTGEPTYADDFKGRFAFSLETSASTAYLQINNLKNEDTATYFCTTYATSWYWGQGTTLTVSS", "VL": "DIVLTQSPASLAVSLGQRATISCRASESVDSYGNSFMHWYQQKPGQPPKLLIYRASNLESGIPARFSGSGSRTDFTLTINPVEADDVATYYCQQSNEDLTFGGGTKLEIK", "notes": "Murine IgG from a hybridoma, purified on protein G (Protein A in some legends); detected with anti-mouse IgG1 (H+L); also called 5A3; hybridoma 5A3"}, "B2": {"name": "human hepcidin-20 peptide (peptide)", "peptide": "ICIFCCGCCHRSKCGMCCKT", "notes": "also called hep-20; hHepcidin-20"}}, "key": {"[1]": {"biological_target": "B2", "experiment": "Western blot after non-reducing tricine SDS-PAGE"}, "[2]": {"biological_target": "T1, NT-biotin hepcidin-25 (human, NT-biotin (biotin label; NT is not spelled out, taken as the N-terminus))", "T1 construct": "also called NT-biotin hepcidin-25 tracer", "T1 peptide": "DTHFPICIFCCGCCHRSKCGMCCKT", "experiment": "ELISA, 583 coated at 25 ng/well, tracer 1 ng/well, SA-HRP", "procedure": "(§1) We used a microwell plate ELISA to assess antibody activity. […] The NT-biotin hepcidin-25 tracer was added across the plate at 1 ng/well in TBST, pH 8) containing 0.25% Blotto. The tracer was allowed to bind for 2 hours and the wells were washed in TBST, pH 8 with no Blotto. SA-HRP was added at 1:2500 for 30 minutes, the wells washed in TBST, and TMB substrate added for 10 minutes. Stop buffer was added the OD quantified on a spectrophotometer at 450 nm. An OD of 4 indicates the absorbance is beyond the analytic range of the spectrophotomer."}, "[3]": {"biological_target": "T2, mouse hepcidin-1 peptide (mouse)", "T2 construct": "also called murine hepcidin-1; mouse hepcidin-25", "T2 peptide": "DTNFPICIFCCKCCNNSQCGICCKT", "experiment": "competition ELISA, MAb 583 coated, NT-biotin hepcidin-25 tracer"}, "[4]": {"biological_target": "T3, human hepcidin 10-25 peptide (human, disulfide (positions not given here); also: oxidized and refolded with proper cysteine bonds, pairing not given here)", "T3 construct": "also called hep 10-25; hHepcidin 10-25", "T3 peptide": "CCGCCHRSKCGMCCKT", "experiment": "competition ELISA, MAb 583 coated, NT-biotin hepcidin-25 tracer"}, "[5]": {"biological_target": "T1, NT-biotin hepcidin-25", "experiment": "ELISA, 583 coated at 12.5 ng/well, tracer 1 ng/well, SA-HRP", "procedure": "as §1"}, "[6]": {"biological_target": "T1, NT-biotin hepcidin-25", "experiment": "ELISA, 583 coated at 50 ng/well, tracer 1 ng/well, SA-HRP", "procedure": "as §1"}, "[7]": {"biological_target": "T1, NT-biotin hepcidin-25", "experiment": "ELISA, 583 coated at 100 ng/well, tracer 1 ng/well, SA-HRP", "procedure": "as §1"}, "[8]": {"biological_target": "T4, K18-biotin hepcidin-25 (human, biotin on K18)", "T4 construct": "also called K18-Biotin Hepcidin-25 tracer", "T4 peptide": "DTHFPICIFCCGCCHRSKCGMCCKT", "experiment": "Biacore SPR, biotin peptide on neutravidin chip, MAb 583 at 24 µg/ml", "procedure": "(§2) Biotinylated hepcidin peptides (NT-biotin-hepcidin-25, K18-biotin-hepcidin-25 and K24-biotin-hepcidin-25) were immobilized in flow cells 2-4 (one peptide species per flow cell) by injecting individual peptides at a concentration of 200 μg/ml at a flow rate of 5 μl/min, for 20 min.\n(§3) After 3 minutes, injection was stopped and dissociation was followed for 6 min. Regeneration was performed by injecting 10 mM glycine HCl, pH 1.5 at a flow rate of 10 μl/min for 1 min."}, "[9]": {"biological_target": "T1, NT-biotin hepcidin-25", "experiment": "Biacore SPR, biotin peptide on neutravidin chip, MAb 583 at 24 µg/ml", "procedure": "as §2, §3"}, "[10]": {"biological_target": "T5, K24-biotin hepcidin-25 (human, biotin on K24)", "T5 construct": "also called K24-biotin hepcidin-25 tracer", "T5 peptide": "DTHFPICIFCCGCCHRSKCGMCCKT", "experiment": "Biacore SPR, biotin peptide on neutravidin chip, MAb 583 at 24 µg/ml", "procedure": "as §2, §3"}, "[11]": {"biological_target": "T4, K18-biotin hepcidin-25", "experiment": "Biacore SPR, biotin peptide on chip, MAb 583 at 5 µg/ml"}, "[12]": {"biological_target": "T1, NT-biotin hepcidin-25", "experiment": "Biacore SPR, biotin peptide on chip, MAb 583 at 5 µg/ml"}, "[13]": {"biological_target": "B1", "experiment": "competition ELISA, MAb 583 coated, NT-biotin hepcidin-25 tracer"}, "[14]": {"biological_target": "T6, BAP070-01 human-mouse chimeric MAb 583", "T6 construct": "tested as unpurified CHO cell supernatant (3650 ng/ml IgG); also called BAP070-01 chimera", "experiment": "C-ELISA, BAP070-01 supernatant on Protein G, hepcidin-25 against NT-biotin hepcidin-25 tracer, 4-parameter fit", "procedure": "To capture BAP070-01 chimeric antibodies we coated microwell plates with Protein G (150 ng/well) overnight in carbonate coating buffer.\nThe plate was washed with TBST and one (1) ng/well of NT-biotin hepcidin-25 was mixed with different amounts (0-100 ng) of synthetic hepcidin-25 standard in TBST, 0.25% BLOTTO and added onto the plate to bind competitively. The plate was washed with TBST and SA-HRP (1:2500) added and allowed to bind for 1 hour.\nThe standard curve shown in FIG. 31 was generated using a four parameter logistical regression (Graphpad Prism; San Diego, Calif.)."}, "[15]": {"biological_target": "B1", "experiment": "C-ELISA, purified MAb 583 coated, hepcidin-25 against NT-biotin hepcidin-25 tracer (FIG. 16)", "procedure": "FIG. 16. […] The relative binding of the NT-biotin hepcidin-25 tracer (1 ng/well) relative to hepcidin-25, hepcidin-22, and hepcidin-20 was measured by ELISA. Four parameter logistical regression analysis was conducted using GraphPad Prism software to produce the curves shown."}}, "note": "Where no end group is shown, it is not given here."}
{"binder": "B1", "values": [{"measurement": "binding result", "setting": "[1]", "value": "binds"}, {"measurement": "OD 450 nm", "setting": "[2]", "value": "≥ 4", "unit": "OD"}, {"measurement": "binding result", "setting": "[3]", "value": "no binding (tested: up to 2000 ng/ml)"}, {"measurement": "binding result", "setting": "[4]", "value": "no binding (tested: up to 2000 ng/ml)"}, {"measurement": "OD 450 nm", "setting": "[5]", "value": "≥ 4", "unit": "OD"}, {"measurement": "OD 450 nm", "setting": "[6]", "value": "≥ 4", "unit": "OD"}, {"measurement": "OD 450 nm", "setting": "[7]", "value": "≥ 4", "unit": "OD"}, {"measurement": "Ka", "setting": "[8]", "value": "1.14e+09", "unit": "M⁻¹"}, {"measurement": "Kd", "setting": "[8]", "value": 0.878, "unit": "nM"}, {"measurement": "Req", "setting": "[8]", "value": 126, "unit": "RU"}, {"measurement": "kobs", "setting": "[8]", "value": 0.0102, "unit": "s⁻¹"}, {"measurement": "koff", "setting": "[8]", "value": "5.59e-05", "unit": "s⁻¹"}, {"measurement": "kon", "setting": "[8]", "value": 63700, "unit": "M⁻¹ s⁻¹"}, {"measurement": "Ka", "setting": "[9]", "value": "1.94e+10", "unit": "M⁻¹"}, {"measurement": "Kd", "setting": "[9]", "value": 0.0516, "unit": "nM"}, {"measurement": "Req", "setting": "[9]", "value": 78.8, "unit": "RU"}, {"measurement": "kobs", "setting": "[9]", "value": 0.00977, "unit": "s⁻¹"}, {"measurement": "koff", "setting": "[9]", "value": "3.15e-06", "unit": "s⁻¹"}, {"measurement": "kon", "setting": "[9]", "value": 61100, "unit": "M⁻¹ s⁻¹"}, {"measurement": "Ka", "setting": "[10]", "value": "1.8e+08", "unit": "M⁻¹"}, {"measurement": "Kd", "setting": "[10]", "value": 5.54, "unit": "nM"}, {"measurement": "Req", "setting": "[10]", "value": 63.1, "unit": "RU"}, {"measurement": "kobs", "setting": "[10]", "value": 0.0086, "unit": "s⁻¹"}, {"measurement": "koff", "setting": "[10]", "value": 0.000288, "unit": "s⁻¹"}, {"measurement": "kon", "setting": "[10]", "value": 52000, "unit": "M⁻¹ s⁻¹"}, {"measurement": "Kd", "setting": "[11]", "value": "~0.0075", "unit": "nM"}, {"measurement": "Kd", "setting": "[12]", "value": "~0.018", "unit": "nM"}]}
{"binder": "B2", "values": [{"measurement": "binding result", "setting": "[13]", "value": "binds"}]}
{"binder": "DTHFPICIFCCGCCHRSKCGMCCKT (Synthetic, biologically active 25 aa peptide; also called hep-25; Hep-25)", "note": "[human hepcidin-25 (synthetic)]", "values": [{"measurement": "EC50", "setting": "[14]", "value": 0.054, "unit": "µg/mL"}, {"measurement": "EC50", "setting": "[15]", "value": "≤ 0.005", "unit": "µg/mL"}]}
